This note sets out measurements from patent US20180194839A1 (Novartis, published 2018).

The target of assay [1] is T1, recombinant mouse IL-23 (R&D Systems Cat#1887-ML) (mouse, UniProt Q9EQ14 22-196; P43432 23-335).
T1 construct: also called mIL-23
T1 sequence (looked up) 1: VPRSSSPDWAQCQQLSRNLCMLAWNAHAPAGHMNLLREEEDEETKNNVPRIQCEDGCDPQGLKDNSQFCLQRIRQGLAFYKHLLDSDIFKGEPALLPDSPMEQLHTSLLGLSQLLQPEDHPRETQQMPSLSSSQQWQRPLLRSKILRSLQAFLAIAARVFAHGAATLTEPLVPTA
T1 sequence (looked up) 2: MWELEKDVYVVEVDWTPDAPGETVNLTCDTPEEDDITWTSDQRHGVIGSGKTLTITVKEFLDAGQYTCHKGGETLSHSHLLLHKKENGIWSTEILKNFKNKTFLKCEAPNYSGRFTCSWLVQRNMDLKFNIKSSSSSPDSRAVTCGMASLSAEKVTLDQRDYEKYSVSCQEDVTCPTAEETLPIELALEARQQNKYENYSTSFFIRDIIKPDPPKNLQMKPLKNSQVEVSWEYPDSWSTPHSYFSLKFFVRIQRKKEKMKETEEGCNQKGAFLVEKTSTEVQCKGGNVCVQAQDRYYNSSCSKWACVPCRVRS
In words: ELISA, coated cytokine. (In an ELISA, binding on a coated surface is turned into a signal by an enzyme label.)

Assay [2] deals with T2, recombinant mouse IFN-γ (R&D Systems Cat#485-MT) (mouse, UniProt P01580 23-155).
T2 construct: also called mIFN-γ
T2 sequence (looked up): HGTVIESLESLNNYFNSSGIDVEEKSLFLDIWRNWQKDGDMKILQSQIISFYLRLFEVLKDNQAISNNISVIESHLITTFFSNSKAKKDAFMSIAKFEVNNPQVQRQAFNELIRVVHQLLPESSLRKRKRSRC
Kind of assay: ELISA, coated cytokine.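 Also: antibodies incubated 3 h at room temperature on cytokine-coated plates, binding read out with alkaline phosphatase-conjugated anti-species IgG secondary antibodies.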

Assay [3] addresses T3, recombinant human IL-17A (SEQ ID NO: 76) (human, UniProt Q16552 24-155, limits assumed).
T3 sequence: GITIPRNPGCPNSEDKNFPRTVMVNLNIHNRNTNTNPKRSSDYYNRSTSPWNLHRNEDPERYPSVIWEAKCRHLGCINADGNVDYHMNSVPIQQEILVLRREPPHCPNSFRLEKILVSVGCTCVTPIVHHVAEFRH
In words: cell-based or functional assay.

The target of assay [4] is T3, recombinant human IL-17A (SEQ ID NO: 76). Kind of assay: ELISA, coated antigen, Ab 1 µg/ml.
Assay [5] concerns the target T4, recombinant human IL-17A/F heterodimer (human, UniProt Q16552 24-155; Q96PD4 31-163, limits assumed).
T4 construct: heterodimer of an IL-17A subunit and an IL-17F subunit; also called huIL-17A/F; rhuIL-17A/F
T4 sequence (looked up) 1: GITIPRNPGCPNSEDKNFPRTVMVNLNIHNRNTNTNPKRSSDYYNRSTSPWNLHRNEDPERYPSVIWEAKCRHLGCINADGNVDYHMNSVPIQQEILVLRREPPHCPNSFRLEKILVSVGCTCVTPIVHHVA
T4 sequence (looked up) 2: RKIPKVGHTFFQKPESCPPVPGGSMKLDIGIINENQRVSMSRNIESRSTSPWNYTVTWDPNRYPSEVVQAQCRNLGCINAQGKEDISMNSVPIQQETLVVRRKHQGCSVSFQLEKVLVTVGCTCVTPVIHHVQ
Kind of assay: ELISA, coated antigen, Ab 1 µg/ml.

Assay [6] has as its target T5, recombinant mouse IL-17A (SEQ ID NO: 83) (mouse, UniProt Q62386 26-158).
T5 construct: also called mIL-17A; rmIL-17A
T5 sequence: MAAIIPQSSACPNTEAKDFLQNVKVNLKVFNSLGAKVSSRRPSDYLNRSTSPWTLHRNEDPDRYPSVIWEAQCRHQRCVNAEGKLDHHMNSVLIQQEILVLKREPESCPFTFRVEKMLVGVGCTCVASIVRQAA
In words: ELISA, coated antigen, Ab 1 µg/ml.

Assay [7] has as its target T6, recombinant mouse IL-17A/F (R&D Systems Cat#5390-IL) (mouse, UniProt Q62386 26-158; Q7TNI7 29-161, limits assumed).
T6 construct: bought heterodimer; also called mIL-17A/F; rmIL-17A/F
T6 sequence (looked up) 1: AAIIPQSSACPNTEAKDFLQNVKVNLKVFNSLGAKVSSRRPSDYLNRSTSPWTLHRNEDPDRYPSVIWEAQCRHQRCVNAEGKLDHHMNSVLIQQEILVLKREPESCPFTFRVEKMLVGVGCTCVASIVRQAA
T6 sequence (looked up) 2: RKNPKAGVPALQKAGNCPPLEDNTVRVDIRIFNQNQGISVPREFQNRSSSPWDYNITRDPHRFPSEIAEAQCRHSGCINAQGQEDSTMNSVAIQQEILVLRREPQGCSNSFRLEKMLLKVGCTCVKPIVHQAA
Kind of assay: ELISA, coated antigen, Ab 1 µg/ml.

Assay [8] has as its target T7, recombinant mouse IL-17F (SEQ ID NO: 84) (mouse, UniProt Q7TNI7 29-161).
T7 construct: also called mIL-17F; rmIL-17F
T7 sequence: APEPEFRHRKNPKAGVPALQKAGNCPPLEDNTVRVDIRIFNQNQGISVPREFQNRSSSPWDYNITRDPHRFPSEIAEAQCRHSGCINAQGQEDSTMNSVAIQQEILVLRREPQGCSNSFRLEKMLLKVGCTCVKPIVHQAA
Kind of assay: ELISA, coated antigen, Ab 1 µg/ml.

In assay [9] the target is T8, recombinant human IL-17B (R&D Systems) (human, UniProt Q9UHF5 21-180).
T8 construct: also called huIL-17B; hu IL-17B
T8 sequence (looked up): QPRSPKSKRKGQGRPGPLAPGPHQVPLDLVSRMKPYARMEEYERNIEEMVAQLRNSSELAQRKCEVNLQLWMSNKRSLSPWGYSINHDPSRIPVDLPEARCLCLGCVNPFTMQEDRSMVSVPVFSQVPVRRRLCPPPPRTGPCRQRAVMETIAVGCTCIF
Kind of assay: ELISA, coated antigen, Ab 1 µg/ml.

Assay [10] concerns the target T9, recombinant human IL-17C (R&D Systems Cat#1234IL/CF) (human, UniProt Q9P0M4 19-197).
T9 construct: also called huIL-17C; hu IL-17C
T9 sequence (looked up): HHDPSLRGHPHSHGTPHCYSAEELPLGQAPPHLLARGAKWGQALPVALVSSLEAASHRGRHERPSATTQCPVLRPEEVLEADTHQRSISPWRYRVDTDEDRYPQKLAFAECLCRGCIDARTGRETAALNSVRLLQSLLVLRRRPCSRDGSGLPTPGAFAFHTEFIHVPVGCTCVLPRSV
In words: ELISA, coated antigen, Ab 1 µg/ml.

B1: XAB4 (antibody, human IgG1, kappa, V domains shown)
VH: EVQLVESGGDLVQPGGSLRLSCAASGFTFSSYWMSWVRQAPGKGLEWVANIKQDGSEKYYVDSVKGRFTISRDNAKNSLYLQMNSLRAEDTAVYYCARDRGSLYYWGQGTLVTVSS
VL: AIQLTQSPSSLSASVGDRVTITCRPSQGINWELAWYQQKPGKAPKLLIYDASSLEQGVPSRFSGSGSGTDFTLTISSLQPEDFATYYCQQFNSYPLTFGGGTKVEIKR
notes: also called MB435 N56Q
Turning to B1, the binding result in [1] and in assay [2] was “no binding (tested: 10 µg/ml)” each time. In addition, the “IC50, huIL-6 secretion by BJ cells; stimulus rhuIL-17A (0.5 nM)” value in assay [3] amounted to 0.55 nM. Further, the O.D. in assay [4] was found to be 2.47 O.D; in [5], 2.14 O.D; in assay [6] it was 1.58 O.D; in assay [7] it was 2.26 O.D; in assay [8] it was 0.098 O.D; in assay [9], 0.034 O.D. Moreover, the O.D. in [10] stood at 0.036 O.D.

B2: XAB1 (antibody, human IgG1, kappa, V domains shown)
VH: EVQLVESGGDLVQPGGSLRLSCAASGFTFSSYWMSWVRQAPGKGLEWVANIKQDGSEKYYVDSVKGRFTISRDNAKNSLYLQMNSLRAEDTAVYYCARDRGSLYYWGQGTLVTVSS
VL: AIQLTQSPSSLSASVGDRVTITCRPSQGIISALAWYQQKPGKAPKLLIYDASSLENGVPSRFSGSGSGTDFTLTISSLQPEDFATYYCQQFNSYPLTFGGGTKVEIKR
notes: human IgG1/kappa monoclonal antibody; also called parental XAB1; XAB1 IgG
For B2, the binding result in [1] and in [2] was “no binding (tested: 10 µg/ml)” each time. Moreover, the “IC50, huIL-6 secretion by BJ cells; stimulus rhuIL-17A (0.5 nM)” value in [3] stood at 4.97 nM. In addition, the O.D. was determined as 1.3 O.D in assay [4]; 1.22 O.D in [5]; 1.44 O.D in [6]; 1.76 O.D in assay [7]; 0.044 O.D in [8]; 0.049 O.D in assay [9]. The O.D. in assay [10] was 0.032 O.D.
